The values that follow come from publication PMC2172667.

Test [1] deals with GST-EPLIN-α (recombinant full-length EPLIN-α GST-fusion protein) (UniProt Q9UHB6). In words: pull-down.
Another test has as its target F-actin (UniProt P68135). In words: co-sedimentation.

Chain of his-EPLIN-α (Q9UHB6 161-759): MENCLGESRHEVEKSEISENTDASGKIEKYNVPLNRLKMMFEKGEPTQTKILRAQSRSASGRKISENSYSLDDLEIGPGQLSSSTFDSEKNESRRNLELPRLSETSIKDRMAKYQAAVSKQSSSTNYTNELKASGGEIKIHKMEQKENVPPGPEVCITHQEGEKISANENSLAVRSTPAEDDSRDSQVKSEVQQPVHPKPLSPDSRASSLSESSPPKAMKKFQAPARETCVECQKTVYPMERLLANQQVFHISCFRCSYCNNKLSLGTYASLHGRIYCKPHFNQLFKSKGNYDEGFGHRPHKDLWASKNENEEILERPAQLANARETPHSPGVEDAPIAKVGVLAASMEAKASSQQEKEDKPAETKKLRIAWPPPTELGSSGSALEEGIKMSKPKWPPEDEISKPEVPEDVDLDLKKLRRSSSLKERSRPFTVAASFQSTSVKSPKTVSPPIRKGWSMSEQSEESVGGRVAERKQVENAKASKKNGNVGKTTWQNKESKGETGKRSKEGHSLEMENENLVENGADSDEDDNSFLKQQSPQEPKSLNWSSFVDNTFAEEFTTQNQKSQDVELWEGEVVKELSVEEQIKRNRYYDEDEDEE
Chain of GST-EPLIN-α (recombinant full-length EPLIN-α GST-fusion protein) (Q9UHB6 161-759): as above

On to “G-actin (from UniProt P68135 1-377) (natural protein)”, for which, in test [1], the percent of actin monomers pelleted stood at 10%.

In the test with F-actin, “his-EPLIN-α (from UniProt Q9UHB6-2 1-599) (natural protein)” yielded a Kd of 0.1 µM and a stoichiometry N (actin molecules per his-EPLIN-α) of 2.
